This note sets out measurements from patent US20230407373A1 (priority 2020, published 2023).

The experiment has as its system HCoV-OC43 gRNA and sgRNA. The experiment is classed as binding. The following applies: for target (unweighted spectral count, OC43 Probe II capture): 36 hpi, type n_36_v, tested against no-probe control, FDR<10%.

B1: C8orf33 (protein, UniProt Q9H7E9 2-229, looked up)
UPF0488 protein C8orf33: AALGHLAGEAAAAPGPGTPCASRGARLPGPVSSARNPSTVCLCPEQPTCSNADSRAHPLGDEGGTASKKQKNKKKTRNRASVANGGEKASEKLAPEEVPLSAEAQAQQLAQELAWCVEQLELGLKRQKPTPKQKEQAIGAIRTLRSKRTPLPRKRQLMHSLFGDYRAQMEAEWREALRALRAAAYSAQVQPVDGATRKKSQRVCRPRSIWRAKATLDMPDEEFRFNFF
B1: the “target (unweighted spectral count, OC43 Probe II capture)” value was determined as 4.

B2: GNL3 (protein, UniProt Q9BVP2 1-549, looked up)
Guanine nucleotide-binding …: MKRPKLKKASKRMTCHKRYKIQKKVREHHRKLRKEAKKRGHKKPRKDPGVPNSAPFKEALLREAELRKQRLEELKQQQKLDRQKELEKKRKLETNPDIKPSNVEPMEKEFGLCKTENKAKSGKQNSKKLYCQELKKVIEASDVVLEVLDARDPLGCRCPQVEEAIVQSGQKKLVLILNKSDLVPKENLESWLNYLKKELPTVVFRASTKPKDKGKITKRVKAKKNAAPFRSEVCFGKEGLWKLLGGFQETCSKAIRVGVIGFPNVGKSSIINSLKQEQMCNVGVSMGLTRSMQVVPLDKQITIIDSPSFIVSPLNSSSALALRSPASIEVVKPMEAASAILSQADARQVVLKYTVPGYRNSLEFFTVLAQRRGMHQKGGIPNVEGAAKLLWSEWTGASLAYYCHPPTSWTPPPYFNESIVVDMKSGFNLEELEKNNAQSIRAIKGPHLANSILFQSSGLTNGIIEEKDIHEELPKRKERKQEEREDDKDSDQETVDEEVDENSSGMFAAEETGEALSEETTAGEQSTRSFILDKIIEEDDAYDFSTDYV
As for B2, the “target (unweighted spectral count, OC43 Probe II capture)” value was determined as 4.

B3: SNX13 (protein, UniProt Q9Y5W8 1-968, looked up)
Sorting nexin-13: MLTEASLSIWGWGSLGIVLFLITFGPFVIFYLTFYILCFVGGGLVVTLLFGKTNSEKYLEQCEHSFLPPTSPGVPKCLEEMKREARTIKIDRRLTGANIIDEPLQQVIQFSLRDYVQYWYYTLSDDESFLLEIRQTLQNALIQFATRSKEIDWQPYFTTRIVDDFGTHLRVFRKAQQKITEKDDQVKGTAEDLVDTFFEVEVEMEKEVCRDLVCTSPKDEEGFLRDLCEVLLYLLLPPGDFQNKIMRYFVREILARGILLPLINQLSDPDYINQYVIWMIRDSNCNYEAFMNIIKLSDNIGELEAVRDKAAEELQYLRSLDTAGDDINTIKNQINSLLFVKKVCDSRIQRLQSGKEINTVKLAANFGKLCTVPLDSILVDNVALQFFMDYMQQTGGQAHLFFWMTVEGYRVTAQQQLEVLLSRQRDGKHQTNQTKGLLRAAAVGIYEQYLSEKASPRVTVDDYLVAKLADTLNHEDPTPEIFDDIQRKVYELMLRDERFYPSFRQNALYVRMLAELDMLKDPSFRGSDDGDGESFNGSPTGSINLSLDDLSNVSSDDSVQLHAYISDTVYADYDPYAVAGVCNDHGKTYALYAITVHRRNLNSEEMWKTYRRYSDFHDFHMRITEQFESLSSILKLPGKKTFNNMDRDFLEKRKKDLNAYLQLLLAPEMMKASPALAHYVYDFLENKAYSKGKGDFARKMDTFVNPLRNSMRNVSNAVKSLPDSLAEGMTKMSDNMGKMSERLGQDIKQSFFKVPPLIPKTDSDPEHRRVSAQLDDNVDDNIPLRVMLLLMDEVFDLKERNQWLRRNIKNLLQQLIRATYGDTINRKIVDHVDWMTSPEQVADSVKRFRDAFWPNGILAEAVPCRDKSIRMRTRVAGKTKLLAIMPDELKHIIGAETTRKGILRVFEMFQHNQLNRRMVYVFLEGFLETLFPQYKFRELFNKLHSRSKQMQKYKQKLQTTQAPSLQKR
As to B3, the “target (unweighted spectral count, OC43 Probe II capture)” value was 5.

B4: SRP72 (protein, UniProt O76094 2-671, looked up)
Signal recognition particle …: ASGGSGGVSVPALWSEVNRYGQNGDFTRALKTVNKILQINKDDVTALHCKVVCLIQNGSFKEALNVINTHTKVLANNSLSFEKAYCEYRLNRIENALKTIESANQQTDKLKELYGQVLYRLERYDECLAVYRDLVRNSQDDYDEERKTNLSAVVAAQSNWEKVVPENLGLQEGTHELCYNTACALIGQGQLNQAMKILQKAEDLCRRSLSEDTDGTEEDPQAELAIIHGQMAYILQLQGRTEEALQLYNQIIKLKPTDVGLLAVIANNIITINKDQNVFDSKKKVKLTNAEGVEFKLSKKQLQAIEFNKALLAMYTNQAEQCRKISASLQSQSPEHLLPVLIQAAQLCREKQHTKAIELLQEFSDQHPENAAEIKLTMAQLKISQGNISKACLILRSIEELKHKPGMVSALVTMYSHEEDIDSAIEVFTQAIQWYQNHQPKSPAHLSLIREAANFKLKYGRKKEAISDLQQLWKQNPKDIHTLAQLISAYSLVDPEKAKALSKHLPSSDSMSLKVDVEALENSAGATYIRKKGGKVTGDSQPKEQGQGDLKKKKKKKKGKLPKNYDPKVTPDPERWLPMRERSYYRGRKKGKKKDQIGKGTQGATAGASSELDASKTVSSPPTSPRPGSAATVSASTSNIIPPRHQKPAGAPATKKKQQQKKKKGGKGGW
As to B4, the “target (unweighted spectral count, OC43 Probe II capture)” value came to 4.

B5: SF3B1 (protein, UniProt O75533 1-1304, looked up)
Splicing factor 3B subunit 1: MAKIAKTHEDIEAQIREIQGKKAALDEAQGVGLDSTGYYDQEIYGGSDSRFAGYVTSIAATELEDDDDDYSSSTSLLGQKKPGYHAPVALLNDIPQSTEQYDPFAEHRPPKIADREDEYKKHRRTMIISPERLDPFADGGKTPDPKMNARTYMDVMREQHLTKEEREIRQQLAEKAKAGELKVVNGAAASQPPSKRKRRWDQTADQTPGATPKKLSSWDQAETPGHTPSLRWDETPGRAKGSETPGATPGSKIWDPTPSHTPAGAATPGRGDTPGHATPGHGGATSSARKNRWDETPKTERDTPGHGSGWAETPRTDRGGDSIGETPTPGASKRKSRWDETPASQMGGSTPVLTPGKTPIGTPAMNMATPTPGHIMSMTPEQLQAWRWEREIDERNRPLSDEELDAMFPEGYKVLPPPAGYVPIRTPARKLTATPTPLGGMTGFHMQTEDRTMKSVNDQPSGNLPFLKPDDIQYFDKLLVDVDESTLSPEEQKERKIMKLLLKIKNGTPPMRKAALRQITDKAREFGAGPLFNQILPLLMSPTLEDQERHLLVKVIDRILYKLDDLVRPYVHKILVVIEPLLIDEDYYARVEGREIISNLAKAAGLATMISTMRPDIDNMDEYVRNTTARAFAVVASALGIPSLLPFLKAVCKSKKSWQARHTGIKIVQQIAILMGCAILPHLRSLVEIIEHGLVDEQQKVRTISALAIAALAEAATPYGIESFDSVLKPLWKGIRQHRGKGLAAFLKAIGYLIPLMDAEYANYYTREVMLILIREFQSPDEEMKKIVLKVVKQCCGTDGVEANYIKTEILPPFFKHFWQHRMALDRRNYRQLVDTTVELANKVGAAEIISRIVDDLKDEAEQYRKMVMETIEKIMGNLGAADIDHKLEEQLIDGILYAFQEQTTEDSVMLNGFGTVVNALGKRVKPYLPQICGTVLWRLNNKSAKVRQQAADLISRTAVVMKTCQEEKLMGHLGVVLYEYLGEEYPEVLGSILGALKAIVNVIGMHKMTPPIKDLLPRLTPILKNRHEKVQENCIDLVGRIADRGAEYVSAREWMRICFELLELLKAHKKAIRRATVNTFGYIAKAIGPHDVLATLLNNLKVQERQNRVCTTVAIAIVAETCSPFTVLPALMNEYRVPELNVQNGVLKSLSFLFEYIGEMGKDYIYAVTPLLEDALMDRDLVHRQTASAVVQHMSLGVYGFGCEDSLNHLLNYVWPNVFETSPHVIQAVMGALEGLRVAIGPCRMLQYCLQGLFHPARKVRDVYWKIYNSIYIGSQDALIAHYPRIYNDDKNTYIRYELDYIL
For the molecule B5, the “target (unweighted spectral count, OC43 Probe II capture)” value stood at 6.

B6: EIF2A (protein, UniProt Q9BY44 1-585, looked up)
Eukaryotic translation …: MAPSTPLLTVRGSEGLYMVNGPPHFTESTVFPRESGKNCKVCIFSKDGTLFAWGNGEKVNIISVTNKGLLHSFDLLKAVCLEFSPKNTVLATWQPYTTSKDGTAGIPNLQLYDVKTGTCLKSFIQKKMQNWCPSWSEDETLCARNVNNEVHFFENNNFNTIANKLHLQKINDFVLSPGPQPYKVAVYVPGSKGAPSFVRLYQYPNFAGPHAALANKSFFKADKVTMLWNKKATAVLVIASTDVDKTGASYYGEQTLHYIATNGESAVVQLPKNGPIYDVVWNSSSTEFCAVYGFMPAKATIFNLKCDPVFDFGTGPRNAAYYSPHGHILVLAGFGNLRGQMEVWDVKNYKLISKPVASDSTYFAWCPDGEHILTATCAPRLRVNNGYKIWHYTGSILHKYDVPSNAELWQVSWQPFLDGIFPAKTITYQAVPSEVPNEEPKVATAYRPPALRNKPITNSKLHEEEPPQNMKPQSGNDKPLSKTALKNQRKHEAKKAAKQEARSDKSPDLAPTPAPQSTPRNTVSQSISGDPEIDKKIKNLKKKLKAIEQLKEQAATGKQLEKNQLEKIQKETALLQELEDLELGI
B6: the “target (unweighted spectral count, OC43 Probe II capture)” value worked out at 4. For the same molecule, the “target (unweighted spectral count, OC43 Probe II)” value (type n_48_v, 48 hpi, OC43 Probe II capture on infected cells) is reported as 5. Also, the “background (unweighted spectral count, no-probe control)” value (type n_48_v, 48 hpi, no-probe control on infected cells) was found to be 1.

B7: UBAP2 (protein, UniProt Q5T6F2 1-1119, looked up)
Ubiquitin-associated protein 2: MMTSVSSDHCRGAREKPQISAAQSTQPQKQVVQATAEQMRLAQVIFDKNDSDFEAKVKQLMEVTGKNQDECIVALHDCNGDVNKAINILLEGNSDTTSWETVGCKKKNFAKENSENKENREKKSEKESSRGRGNNNRKGRGGNRGREFRGEENGIDCNQVDKPSDRGKRARGRGFGRGRGRGAGRFSTQGMGTFNPADYSDSTSTDVCGTKLVVWEAAQNGADEGTELASNTHNIAQDLSNKSSYGLKGAWKNSVEEWTTEDWTEDLSETKVFTASSAPAENHILPGQSIDLVALLQKPVPHSQASEANSFETSQQQGFGQALVFTNSQHNNQMAPGTGSSTAVNSCSPQSLSSVLGSGFGELAPPKMANITSSQILDQLKAPSLGQFTTTPSTQQNSTSHPTTTTSWDLKPPTSQSSVLSHLDFKSQPEPSPVLSQLSQRQQHQSQAVTVPPPGLESFPSQAKLRESTPGDSPSTVNKLLQLPSTTIENISVSVHQPQPKHIKLAKRRIPPASKIPASAVEMPGSADVTGLNVQFGALEFGSEPSLSEFGSAPSSENSNQIPISLYSKSLSEPLNTSLSMTSAVQNSTYTTSVITSCSLTSSSLNSASPVAMSSSYDQSSVHNRIPYQSPVSSSESAPGTIMNGHGGGRSQQTLDTPKTTGPPSALPSVSSLPSTTSCTALLPSTSQHTGDLTSSPLSQLSSSLSSHQSSLSAHAALSSSTSHTHASVESASSHQSSATFSTAATSVSSSASSGASLSSSMNTANSLCLGGTPASASSSSSRAAPLVTSGKAPPNLPQGVPPLLHNQYLVGPGGLLPAYPIYGYDELQMLQSRLPVDYYGIPFAAPTALASRDGSLANNPYPGDVTKFGRGDSASPAPATTPAQPQQSQSQTHHTAQQPFVNPALPPGYSYTGLPYYTGMPSAFQYGPTMFVPPASAKQHGVNLSTPTPPFQQASGYGQHGYSTGYDDLTQGTAAGDYSKGGYAGSSQAPNKSAGSGPGKGVSVSSSTTGLPDMTGSVYNKTQTFDKQGFHAGTPPPFSLPSVLGSTGPLASGAAPGYAPPPFLHILPAHQQPHSQLLHHHLPQDAQSGSGQRSQPSSLQPKSQASKPAYGNSPYWTN
B7: the “target (unweighted spectral count, OC43 Probe II capture)” value was 4.

B8: TFB1M (protein, UniProt Q8WVM0 28-346, looked up)
Dimethyladenosine transferase …: QAAKQLSQNFLLDLRLTDKIVRKAGNLTNAYVYEVGPGPGGITRSILNADVAELLVVEKDTRFIPGLQMLSDAAPGKLRIVHGDVLTFKVEKAFSESLKRPWEDDPPNVHIIGNLPFSVSTPLIIKWLENISCRDGPFVYGRTQMTLTFQKEVAERLAANTGSKQRSRLSVMAQYLCNVRHIFTIPGQAFVPKPEVDVGVVHFTPLIQPKIEQPFKLVEKVVQNVFQFRRKYCHRGLRMLFPEAQRLESTGRLLELADIDPTLRPRQLSISHFKSLCDVYRKMCDEDPQLFAYNFREELKRRKSKNEEKEEDDAENYRL
As for B8, the “target (unweighted spectral count, OC43 Probe II capture)” value was 4.
